Publication PMC4164936, “The translation elongation factor eEF1A1 couples transcription to translation during heat shock response”

T1: eEF1A1 (Homo sapiens (HeLa S-100)) (UniProt P68104)
T1 sequence: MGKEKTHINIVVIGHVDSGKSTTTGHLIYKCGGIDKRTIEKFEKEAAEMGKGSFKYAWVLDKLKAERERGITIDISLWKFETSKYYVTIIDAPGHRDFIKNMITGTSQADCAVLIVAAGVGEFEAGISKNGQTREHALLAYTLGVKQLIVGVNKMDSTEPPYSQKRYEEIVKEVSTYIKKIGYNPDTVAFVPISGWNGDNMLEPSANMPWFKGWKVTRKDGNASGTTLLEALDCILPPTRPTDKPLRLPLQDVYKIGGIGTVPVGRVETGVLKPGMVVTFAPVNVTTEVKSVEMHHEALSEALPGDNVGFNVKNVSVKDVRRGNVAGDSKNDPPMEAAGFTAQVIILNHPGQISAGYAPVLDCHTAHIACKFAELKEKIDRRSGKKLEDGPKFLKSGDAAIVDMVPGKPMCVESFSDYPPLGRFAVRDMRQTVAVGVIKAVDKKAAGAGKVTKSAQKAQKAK


What was measured:
[1] = biological target: T1, eEF1A1 (Homo sapiens (HeLa S-100)); assay: EMSA; conditions: RNA EMSA: purified eEF1A1 with 20 kcpm RNA (~0.1 pmol/ul), 50 uM GTP, 30 min, room temperature; protein stock in 50 mM Tris-HCl pH 7.5, 100 mM KCl, 0.5 mM …
eEF1A1 = eEF1A1 (Homo sapiens (HeLa S-100), UniProt P68104 1-462); assay: EMSA; relatively weak; reviewer notes no saturation, >300 nM; RNA EMSA: purified eEF1A1 with 20 kcpm RNA (~0.1 pmol/ul), 50 uM GTP, 30 min, room temperature; protein stock in 50 mM Tris-HCl pH 7.5, 100 mM KCl, 0.5 mM EDTA, 2 mM DTT, 10% glycerol; binding buffer per cited protocols (Yan 2008, Shamovsky 2006); conditions: protein: native; tags: none; (radiolabeled); blunt

Molecule | Kd [1] | binding [1] | binding result (eEF1A1)
GGGGGGCCUUUCCAAGAUUGCUGUUUUUGUUUUGGAGCUUCAAGACUUUGCAUUUCCUAGUAUUUCUGUUUGUCAGUUCUCAAUUUCCUGUGUUUGCAAUGUUGAAAUUUUUUGGUGAAGUACUGAACUUGCUUUUUUUCCGGUUUCUACAUGCAGAGAUGAAUUUAUACUGCCAUCUUACGACUAUUUCUUCUUUUUAAUACACUUAACUCAGGCCAUUUUUUAAGUUGGUUACUUCAAAGUAAAUAAACUUUAAAAUUCAA [HSP70 3'UTR] | 100 nM | binds | –
HSP70 3'UTR | 100 nM | – | –
HSPA1A -141/-91 promoter (dsDNA) DNA 1: GGAAGGCTGGGGGGCAGGACGGGAGGCGAAAACCCTGGAATATTCCCGACC DNA 2: GGTCGGGAATATTCCAGGGTTTTCGCCTCCCGTCCTGCCCCCCAGCCTTCC | – | – | binds
